Consider eight molecules from US20160053277A1, “Compositions Having Dicamba Decarboxylase Activity and Methods of Use” (PIONEER HI-BRED INTERNATIONAL, INC., priority 2013, published 2016).

This assay in a line: Saturation mutagenesis of SEQ ID NO:109: dicamba decarboxylation activity of point mutants (carbon dioxide released).
Setting [1] is: dicamba decarboxylation activity of point mutants of SEQ ID NO: 109, relative to unchanged template.
Setting [2] is: point mutation in SEQ ID NO: 109.

B1: R212Q: point mutant of SEQ ID NO: 109 (protein)
chain: MAQGKVALEEHFAIPETLQDSAGFVPGDYWKELQHRLLDIQDTRLKLMDAHGIETMILSLNAPAVQAIPDRRKAIEIARRANDVLAEECAKRPDRFLAFAALPLQDPDAATEELQRCVNDLGFVGALVNGFSQEGDGQTPLYYDLPQYRPFWGEVEKLDVPFYLHPRNPLPQDSRIYDGHPWLLGPTWAFAQETAVHALRLMASGLFDEHPQLNIILGHMGEGLPYMMWRIDHRVAWVKLPPRYPAKRRFMDYFNENFHITTSGNFRTQTLIDAILEIGADRILFSTDWPFENIDHASDWFNATSIAEADRVKIGRTNARRLFKLDGA
modifications: Dicamba decarboxylase variant clone: DC.4.032
For B1, the “Average Activity (Fold of SEQ ID NO: 109)” value under setting [1] is reported as 1.7 Fold of SEQ ID NO: 109 and the “Average Activity (Fold of SEQ ID NO: 109)” value under setting [2] was 1.7 Fold of SEQ ID NO: 109.

B2: K239H: point mutant of SEQ ID NO: 109 (protein)
chain: MAQGKVALEEHFAIPETLQDSAGFVPGDYWKELQHRLLDIQDTRLKLMDAHGIETMILSLNAPAVQAIPDRRKAIEIARRANDVLAEECAKRPDRFLAFAALPLQDPDAATEELQRCVNDLGFVGALVNGFSQEGDGQTPLYYDLPQYRPFWGEVEKLDVPFYLHPRNPLPQDSRIYDGHPWLLGPTWAFAQETAVHALRLMASGLFDEHPRLNIILGHMGEGLPYMMWRIDHRVAWVHLPPRYPAKRRFMDYFNENFHITTSGNFRTQTLIDAILEIGADRILFSTDWPFENIDHASDWFNATSIAEADRVKIGRTNARRLFKLDGA
modifications: Dicamba decarboxylase variant clone: DC.4.032
As to B2, the “Average Activity (Fold of SEQ ID NO: 109)” value is, setting by setting: under setting [1], 1.8 Fold of SEQ ID NO: 109; under setting [2], 1.8 Fold of SEQ ID NO: 109.

B3: L240D: point mutant of SEQ ID NO: 109 (protein)
chain: MAQGKVALEEHFAIPETLQDSAGFVPGDYWKELQHRLLDIQDTRLKLMDAHGIETMILSLNAPAVQAIPDRRKAIEIARRANDVLAEECAKRPDRFLAFAALPLQDPDAATEELQRCVNDLGFVGALVNGFSQEGDGQTPLYYDLPQYRPFWGEVEKLDVPFYLHPRNPLPQDSRIYDGHPWLLGPTWAFAQETAVHALRLMASGLFDEHPRLNIILGHMGEGLPYMMWRIDHRVAWVKDPPRYPAKRRFMDYFNENFHITTSGNFRTQTLIDAILEIGADRILFSTDWPFENIDHASDWFNATSIAEADRVKIGRTNARRLFKLDGA
modifications: Dicamba decarboxylase variant clone: DC.4.032
On to B3, for which the “Average Activity (Fold of SEQ ID NO: 109)” value under setting [1] was 2.2 Fold of SEQ ID NO: 109.

B4: L240A: point mutant of SEQ ID NO: 109 (protein)
chain: MAQGKVALEEHFAIPETLQDSAGFVPGDYWKELQHRLLDIQDTRLKLMDAHGIETMILSLNAPAVQAIPDRRKAIEIARRANDVLAEECAKRPDRFLAFAALPLQDPDAATEELQRCVNDLGFVGALVNGFSQEGDGQTPLYYDLPQYRPFWGEVEKLDVPFYLHPRNPLPQDSRIYDGHPWLLGPTWAFAQETAVHALRLMASGLFDEHPRLNIILGHMGEGLPYMMWRIDHRVAWVKAPPRYPAKRRFMDYFNENFHITTSGNFRTQTLIDAILEIGADRILFSTDWPFENIDHASDWFNATSIAEADRVKIGRTNARRLFKLDGA
modifications: Dicamba decarboxylase variant clone: DC.4.032
With B4, the “Average Activity (Fold of SEQ ID NO: 109)” value under setting [1] is given as 2.3 Fold of SEQ ID NO: 109.

B5: N214Q: point mutant of SEQ ID NO: 109 (protein)
chain: MAQGKVALEEHFAIPETLQDSAGFVPGDYWKELQHRLLDIQDTRLKLMDAHGIETMILSLNAPAVQAIPDRRKAIEIARRANDVLAEECAKRPDRFLAFAALPLQDPDAATEELQRCVNDLGFVGALVNGFSQEGDGQTPLYYDLPQYRPFWGEVEKLDVPFYLHPRNPLPQDSRIYDGHPWLLGPTWAFAQETAVHALRLMASGLFDEHPRLQIILGHMGEGLPYMMWRIDHRVAWVKLPPRYPAKRRFMDYFNENFHITTSGNFRTQTLIDAILEIGADRILFSTDWPFENIDHASDWFNATSIAEADRVKIGRTNARRLFKLDGA
modifications: Dicamba decarboxylase variant clone: DC.4.032
Consider B5, for which the “Average Activity (Fold of SEQ ID NO: 109)” value by setting is: under setting [1], 1.8 Fold of SEQ ID NO: 109; under setting [2], 1.8 Fold of SEQ ID NO: 109.

B6: L240E: point mutant of SEQ ID NO: 109 (protein)
chain: MAQGKVALEEHFAIPETLQDSAGFVPGDYWKELQHRLLDIQDTRLKLMDAHGIETMILSLNAPAVQAIPDRRKAIEIARRANDVLAEECAKRPDRFLAFAALPLQDPDAATEELQRCVNDLGFVGALVNGFSQEGDGQTPLYYDLPQYRPFWGEVEKLDVPFYLHPRNPLPQDSRIYDGHPWLLGPTWAFAQETAVHALRLMASGLFDEHPRLNIILGHMGEGLPYMMWRIDHRVAWVKEPPRYPAKRRFMDYFNENFHITTSGNFRTQTLIDAILEIGADRILFSTDWPFENIDHASDWFNATSIAEADRVKIGRTNARRLFKLDGA
modifications: Dicamba decarboxylase variant clone: DC.4.032
With B6, the “Average Activity (Fold of SEQ ID NO: 109)” value runs as follows: under setting [1], 2.1 Fold of SEQ ID NO: 109; under setting [2], 2.1 Fold of SEQ ID NO: 109.

B7: W229Y: point mutant of SEQ ID NO: 109 (protein)
chain: MAQGKVALEEHFAIPETLQDSAGFVPGDYWKELQHRLLDIQDTRLKLMDAHGIETMILSLNAPAVQAIPDRRKAIEIARRANDVLAEECAKRPDRFLAFAALPLQDPDAATEELQRCVNDLGFVGALVNGFSQEGDGQTPLYYDLPQYRPFWGEVEKLDVPFYLHPRNPLPQDSRIYDGHPWLLGPTWAFAQETAVHALRLMASGLFDEHPRLNIILGHMGEGLPYMMYRIDHRVAWVKLPPRYPAKRRFMDYFNENFHITTSGNFRTQTLIDAILEIGADRILFSTDWPFENIDHASDWFNATSIAEADRVKIGRTNARRLFKLDGA
modifications: Dicamba decarboxylase variant clone: DC.4.032
Regarding B7, the “Average Activity (Fold of SEQ ID NO: 109)” value by setting is: under setting [1], 1.7 Fold of SEQ ID NO: 109; under setting [2], 1.7 Fold of SEQ ID NO: 109.

B8: V235I: point mutant of SEQ ID NO: 109 (protein)
chain: MAQGKVALEEHFAIPETLQDSAGFVPGDYWKELQHRLLDIQDTRLKLMDAHGIETMILSLNAPAVQAIPDRRKAIEIARRANDVLAEECAKRPDRFLAFAALPLQDPDAATEELQRCVNDLGFVGALVNGFSQEGDGQTPLYYDLPQYRPFWGEVEKLDVPFYLHPRNPLPQDSRIYDGHPWLLGPTWAFAQETAVHALRLMASGLFDEHPRLNIILGHMGEGLPYMMWRIDHRIAWVKLPPRYPAKRRFMDYFNENFHITTSGNFRTQTLIDAILEIGADRILFSTDWPFENIDHASDWFNATSIAEADRVKIGRTNARRLFKLDGA
modifications: Dicamba decarboxylase variant clone: DC.4.032
With B8, the “Average Activity (Fold of SEQ ID NO: 109)” value runs as follows: under setting [1], 1.8 Fold of SEQ ID NO: 109; under setting [2], 1.8 Fold of SEQ ID NO: 109.
